Experimental data taken from the nanobody polyreactivity screen of Harvey et al. (2022).

experiment: yeast display, Sf9 membrane polyspecificity reagent, FACS + sequencing; frameworks hold sequencing errors
Procedure, shortened: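 A synthetic nanobody library was expressed on Saccharomyces cerevisiae BJ5465 by galactose induction for 36–48 hours. The library was stained for 1 hour at 4 °C with 10% biotinylated, detergent-solubilized Sf9 membrane reagent and enriched with streptavidin microbeads before FACS. Low and high (top ~1%) gates were set on anti-HA fluorescence for expression and streptavidin fluorescence for reagent binding, and each polyreactivity label reflects the gate of origin.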

Row | Sequence | polyreactivity (PSR sort gate)
1 | QVQLVESGGGLDQAGGSLRLSCAPSGSIVRYAMGWYRPAPGKERELVAAISSSGGSTYYADSVKGRFTISRDNAKNTFYLQMNRLKPADTAVYYCAKRIVQASVAAYYYWGQGPQVTVSS | high polyreactivity
2 | QVQLVESGGGLDQAGGSLRLSCPASAITFQLYAKGWYRQAPGKERELVAAISRSGSGTYYADSVKGRFTISRDNAKNTVYLQMHSLKPEDTAVYYCAALGPGYYWGQGTQVTVSS | high polyreactivity
3 | QVQLVESGGGLDQAGGSLRLSSAASGFTFVYYAMGWYRQAPGKERELVAAISWSGGTTYYADSVKGRFTISRDNAKNTVYLQMNSLKPEDTAVYYCNVYPAYIYFDYDYWGQGTQVTVSS | high polyreactivity
4 | QVQLVESGGGLDQAGGSLRLSSAASGSMILHNDMGWYRQAPGKEMELVATIDSAGGTYYADSVKGRFTISRDNAKNTVYLQMNSLKPEDSAVYYCAAYGPYVLSIYDYWGQGTQVTVSS | low polyreactivity
5 | QVQLVESGGGLDQAGGSLRLTCAASGNTSEYYAMGWSRQAPGKERQLVAAIRSDVRTYYADSVKGRFTISRDNAKNTVYLQMNSLKPEDTAVYYCNADKSAWDYYLQTFNYWGQGTQVTVSS | high polyreactivity
6 | QVQLVESGGGLDQAGGSLRLTCAASGSIFRWYAMGWYRQAPGKERELVAAISRGASTNYADSVKGRFTISRDNAKNTVYLKMNSLKPEDTAVYFCAKRTTRLATYDYWGQGTQVTVSS | high polyreactivity
7 | QVQLVESGGGLDQAGGSLRLTCAASGSTFQFYAMGWYRQAPGKERYLVAAISGAGGSTYYADSVKGRFTISRDNAKNTVYLQMNILKPEDTAVYYCNKVRRKQSVLTFDYWGQGTQVTVSS | high polyreactivity
8 | QVQLVESGGGLDQAGGSLRLTCAASRFNFNGYAMGSYSQAPRKERELVAGITSGGRTNYADSVKGRFTISRDNAKNTVYLQMNSLKPEDTAVYYCNRYKVSGYDYWGQGTQVTVSS | high polyreactivity
9 | QVQLVESGGGLDQAGGSLRLTSAASGSTFYRNAMGWYRQAPGKERELVAAITIRGGSTSFADSVKGRFTISRDNAKNTVYLQMNSLKPEDTAVYYCNADPRAEPGDWSYEMDYWGQGTQVTVSS | low polyreactivity
10 | QVQLVESGGGLDQAGGSLRLTWAASGSIIGRNFMGLYRQAPGKEREFLAAIRSSGATTYYADSVKGRFTISRDNAKYTVFLQMTSLKPEDTAVYYCNARPPYYTVQTGGYDYWGQGTQVTVSS | low polyreactivity
11 | QVQLVESGGGLDQAGGSLRVSCAASGSILRYTMGWYRQAPGKERELVAAITRSGTSTYYADSVKGRFTISRDNAKNTVYLQMNSLKPEDTAVYYCAADDHYGRGFQYYYWGQGTQVTVSS | high polyreactivity
12 | QVQLVESGGGLDQAGGSLRVSCAASGSTFHRNAMGWYRQAPGKERELVAAITSGGSTNYADSVKGRFTISRDNAKNTVYLQMNSLNPEDTAVYYCAKDYLHYNRGWYDYWGQGTQVTVSW | low polyreactivity
13 | QVQLVESGGGLDQAGGSRRLSCAASGITFGRNTMGWYRQSPGKERELVASISYSGTTTYYADSVKGRFTISPDNAKNTVYLQMNSLKPEDTAVYYCNKRWRYYDMDYWGQGTQVTVSS | low polyreactivity
14 | QVQLVESGGGLDQAGGSVRLSCAASGSTFDNYAMGWYRQAPGKEREWVAVISRSGTSTYYADSVKGRFTISRDNAKNTVYLQMNSLKPEDTAVYYCASAPSQVYRARFYYWGQGTQVTVSS | high polyreactivity
15 | QVQLVESGGGLDQARGSLRLSCAASGFTFKFYAMGWYRQSPGKEREFVAAISGSGDSTYADSVKGRFTISRDNAKNTVYLQMNSLKPEDTAVYYCNARYAGVPWWGYYSSEVNYWGQGTQVTVSS | low polyreactivity
16 | QVQLVESGGGLDQARGSLRLSCAASGLTFVEYAMGWYRQAPGKESELVADITISGGRTYYADSVKGRFTISRDNAKYTVYLQMNSLKPEDTAVYYCNAQSYLGVTHRGYIKNGYDYWGQGTQVTVSS | low polyreactivity

Row | Sequence | polyreactivity (PSR sort gate)
17 | QVQLVESGGGLDQARGSLRLSCAASGRIFYTYAMGWYRRAPGKERELVAAISRSGTSTYYADSVKGRFTISRDNAKNTVYLQMNSLKPEDTAVYYCAAAKWYSVAYVGTFKYDYWGQGTQVTVSS | high polyreactivity
18 | QVQLVESGGGLDQARGSLRLSCAASGSTFYYYAMGWYRQAPGKERELVAAITSRGGRTYYADSVKGRFTISRDNAKNTVYLQMNSLKPEDTAVYYCNARTIYYGFDYWGQGTQVTVSS | low polyreactivity
19 | QVQLVESGGGLDQEGGSLRLSCAASGSIFFWNDMGWYRQAPGKERELVAAISWSGGSTSYADSVKGRFTISRDNAKNTVYLQMNSLKPEDTAVYYCAAEYTYGSPYDYWGQGTQVTVSS | low polyreactivity
20 | QVQLVESGGGLEQAGGRLRLSCAASGSTFGGYAMGWFRQSPGTERQLVAAISGSGVRTYYADSVKGRFTISRDTAKNTVYLEMNSLNQEDTEVFYCAKRVRYPGDLYYYWGQGTQVTVSW | high polyreactivity
21 | QVQLVESGGGLEQAGGRLRLSCADSRRIFGRYAMGWYRQAPGKERELVAAINQSGSTTYYADSVKGRFTISRDNAKNTVYLQMNSLKPEDTAVYYCAADGNGVDYDYWGQGTQVTVSS | low polyreactivity
22 | QVQLVESGGGLFHAGGSLRLSCAAYGSTFPYYTMGWYRQAPGKERELVAAITTRGGGTYYADSVKGRFTISRDNAKNTVYIQMKSLKPEDTAVYYCAAKTIYYTRGIRHYYWGQVTQVTVSS | high polyreactivity
23 | QVQLVESGGGLFQAGGRLRLSCAASGSIFPPYAMGWYRQAPGKERELVAAINWSGGRTYYADSVKGRFTISRDHPKNTLYLHMNSLKPEDTEDYYGAADLRRYSGEYYYWGQRTQVTVSS | high polyreactivity
24 | QVQLVESGGGLFQAGGRLRLSCAASGYTFYLNAMGWYRQAPGKEREFVAVIDDSGDSTDYADSVKGRFTISRDNAKNTVYLQMHSLKPEDTAVYYCAANEGGTGDDYWGQGTQVTVSS | low polyreactivity
25 | QVQLVESGGGLFQAGGSLRISFAASGRIFGVNAMGWYRQAPGTQSELVAAISAGGGNTYYADSVKGRFTISRDNAKNTVYLQMNRLKPEDTAVYFCNVQRSLRMDFWGQGTQVTVSS | high polyreactivity
26 | QVQLVESGGGLFQAGGSLRISSAPSGRTYYRNAMGWYRQAPGIERELVAAISWSGGRTYYADSVKGRFTISRDNAKNTVYLQMNSLKPEDSAVYYCAALFIYRSYAALSRYDYWGQGTQVTVSS | high polyreactivity
27 | QVQLVESGGGLFQAGGSLRLSCAASGFIFGLYAMGWYRQAPGKEREFVAAISTSSGITYYADSVKGRFTISRDNAKNTVYLQMNSLKPEDTAVYDCAARGHYYDYWRQGTQVTVSS | low polyreactivity
28 | QVQLVESGGGLFQAGGSLRLSCAASGFIFYYNTMGWYRQAPGKERELVAAISSGGRTYYADSVKGRFTISRDNAKNTVYLQMNSLKPEDTAVYYCNVVTYVKYGCWGQGTQVTVSS | high polyreactivity
29 | QVQLVESGGGLFQAGGSLRLSCAASGFTFPHYMGWYRQAPGKERELVAAINVSGGSTSYADSVKGRFSISRDNAKNTVYLQMNSLKPEDTGVYFCAKDLRFRLFSYPSDYWGQGTQVTVSS | low polyreactivity
30 | QVQLVESGGGLFQAGGSLRLSCAASGFTFVDYAMAWYRQAPGKERELVAAITVSGDSTYYADSVKGRFTISRDNAKNTVYLQMNSLKRADTAFYYCAADPGYYYGGYWGQGTQVTVST | low polyreactivity
31 | QVQLVESGGGLFQAGGSLRLSCAASGFTPGNVRGCYRQAPGKERELVAAISWSADSTYYADSVKGRFTISRDNAKNTVNLQMKSLKREDSAVYYCSADGVPGRAVDYEYWRQGTQVTVSS | high polyreactivity
32 | QVQLVESGGGLFQAGGSLRLSCAASGGIFVDNAMGWYRQAPGKERELVAAISWSGGSTYYADSVKGRFTISRYHAKNTVYLQMNSLKPEDTAVYYCAKVYVEDEGYQWADYDYWGQGTQVTVSS | low polyreactivity
